Source: publication PMC3784749

Molecular target: glutathione S-transferase from Schistosoma japonicum (Schistosoma japonicum)
Test: SAXS; GST alone in 20 mM phosphate, 80 mM NaCl, pH 8.0, 20 °C; shape reconstruction (GASBOR, DAMAVER) superimposed on crystal structure 1UA5

stoichiometry N: 2
Substance: glutathione S-transferase from Schistosoma japonicum (enzyme)
